{
  "source": "patent US20170022269A1",
  "key": {"Aβ(1-42) fibrils (human) [1]": {"target": "Aβ(1-42) fibrils (human) (UniProt P05067)", "sequence (P05067 672-713)": "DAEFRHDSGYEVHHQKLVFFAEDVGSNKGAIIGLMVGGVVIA", "experiment": "dot blot densitometry, antibody 0.2 µg/ml; column Aβ(1-42) fibril"}, "Aβ(1-40) monomer (human)": {"target": "Aβ(1-40) monomer (human)", "sequence (peptide, as listed by the source)": "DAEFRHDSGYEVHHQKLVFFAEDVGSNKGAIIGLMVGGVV", "experiment": "dot blot densitometry, antibody 0.2 µg/ml; column Aβ(1-40) monomer, 0.1% NaOH"}, "Aβ(1-42) fibrils (human) [2]": {"target": "Aβ(1-42) fibrils (human) (UniProt P05067)", "experiment": "co-pelleting with Aβ(1-42) fibrils, SDS-PAGE, optical density of the heavy chain in pellet / (pellet + supernatant)"}},
  "data": [
    {"binder": "monoclonal antibody 3B10 (antibody, part only; not given: light chain, V domains shown, part only) VH: QVQLQQSGPELVKPGASVKMSCKASGYTFTDYVIHWVKQKPGQGLEWIGYINPYNDGTQYNEKFKGKATLTSDKSSSTVYMELSSLTSEDSTVYYCTVEGGTWDGYFDVWGTGTTVTVSS", "values": [
      {"measurement": "relation between recognition of Aβ(20-42) globulomer and the respective Aβ form", "setting": "Aβ(1-42) fibrils (human) [1]", "result": "> 10000"},
      {"measurement": "relation between recognition of Aβ(20-42) globulomer and the respective Aβ form", "setting": "Aβ(1-40) monomer (human)", "result": "> 10000"},
      {"measurement": "antibody bound to fibrils [%]", "setting": "Aβ(1-42) fibrils (human) [2]", "result": 5, "unit": "%"}
    ]}
  ]
}
